Measurements published in patent US7812117B2, “Vasostatin as marrow protectant” (The United States of America as represented by the …, priority 1998, dated 2010).

Columns and labels:
[1] = test system: variety of cell and cell lines; assay: Proliferation of a variety of cells and cell lines (mononuclear cells, lymphoid, tumor lines, fibroblasts); format: cell-based, human; conditions: vaso 0.25 to 50 μg/ml
Description: Human mononuclear cells, and mononuclear cells enriched for B or T cells, were used in proliferation assays in the presence of phytohemagglutinin(Sigma), pokeweed mitogen (Sigma) or Epstein-Barr virus (B95-8 strain), as described previously (Tosato et al., 1988). The lymphoblastoid cell line VDS-0, the Burkitt cell lines CA46, BL41, KK124, Ag876, SHO (Cherney et al., 1997), the T-cell line Molt-4 (ATCC), the Hodgkin's lymphoma cell line Hs445 (ATCC); the prostate adenocarcinoma cell lines TSU-Prl (from A. Passaniti, NIH, Baltimore, Md.), Du145 (ATCC), and PC3 (ATCC), and the acute promyelocytic leukemia cell line HL60 (ATCC) were cultured in RPMI 1640 medium with 10% heat-inactivated FCS (BioWhittaker), […] L-glutamine (Sigma) and 5 μg/ml gentamicin, and tested in 3-5 days proliferation assays at cell densities varying from 300 to 2400 cells/microwell. The neuroblastoma cell line SKNMC (ATCC) was cultured in EMEM medium BioWhittaker) with 10% heat inactivated FCS and gentamicin and tested for proliferation at 125-1000 cells/well. The lung adenocarcinoma cell line A549 (ATCC) was cultured in F-12 Nutrient Mixture (HAM, Gibco BRL) with 10% heat-inactivated FCS, gentamicin and tested for proliferation at 250-2000 cells/well. […]

human CD34+ cells = assay: Proliferation of purified human peripheral blood CD34+ cells; format: cell-based
Description: FIG. 12 is a bar graph of the proliferative responses of human CD34-positive cells to vaso. Human CD34-positive cells purified (>90% purity) from the peripheral blood of a normal individual after G-CSF mobilization following standard procedures were cultured (1×10^6 cells/ml) in 24 well tissue culture plates in RPMI 1640 medium supplemented with 15% FBS. […] Vaso was added at 10 μg/ml. Cell proliferation was measured during the final 22 hr of a 5, 6 or 9 day culture by ^3H thymidine incorporation. Data is shown as the mean of triplicate cultures.
To this end, CD34+ cells were purified to a high degree of homogeneity (>90% purity) from the peripheral blood of normal donors, according to established protocols (Mavroudis et al. Bone Marrow Transplant 21:431-40, 1998).
The purified human CD34+ cells along with the negatively selected CD34− mononuclear cell population were cultured in RPMI 1640 medium containing 15% FBS. Human Stem Cell Factor (300 ng/ml) and Flt-3 ligand (300 ng/ml) were added to the culture medium. […] Thus, purified hematopoietic cells from both mouse and man proliferate in response to vaso.
Vaso, calreticulin fragment 103-163, calreticulin fragment 120-146, and calreticulin fragment 128-146 (all used at 10 μg/ml) were tested in side-by-side assays for their ability to stimulate murine bone marrow hematopoietic cells in the presence of IL-3 (20 ng/ml). […]

B1: vaso: N-terminal domain of calreticulin (amino acids 1-180, SEQ ID NO:3); given as fusion protein with maltose binding protein, MBP-vaso (protein)
chain: EPAVYFKEQFLDGDGWTSRWIESKHKSDFGKFVLSSGKFYGDEEKDKGLQTSQDARFYALSASFEPFSNKGQTLVVQFTVKHEQNIDCGGGYVKLFPNSLDQTDMHGDSEYNIMFGPDICGPGTKKVHVIFNYKGKNVLINKDIRCKDDEFTHLYTLIVRPDNTYEVKIDNSQVESGSLE
modifications: Vasostatin
[1]
  effects on proliferation of a variety of cell and cell lines: minimal stimulatory (or inhibitory) effects
Human CD34+ cells; IL-3 alone or IL-3 together with IL-6 and Stem Cell Factor
  cell growth of purified human CD34+ peripheral blood cells: similarly stimulated cell growth
Human CD34+ cells; vaso 10 μg/ml, Stem Cell Factor 300 ng/ml and Flt-3 ligand 300 ng/ml
  proliferation of CD34+ cells: responded with increased proliferation
